Our source for the kcat/Km, Km and kcat values is ChEMBL document CHEMBL1143427, “Interactions of ceftobiprole with beta-lactamases from molecular classes A to D” (Antimicrob Agents Chemother, 2007).

Substrate in data set [1]: CC1(C)S[C@@H]2[C@H](NC(=O)Cc3ccccc3)C(=O)N2[C@H]1C(=O)O
Nature of the data set: (§1) Ratio of Kcat to Km of Serratia marcescens SME3 assessed as drug hydrolysis by spectrophotometry.

Substrate in data set [2]: Nc1nc(/C(=N/O)C(=O)N[C@@H]2C(=O)N3C(C(=O)O)=C(/C=C4\CCN([C@@H]5CCNC5)C4=O)CS[C@H]23)ns1
Described as §1.

Substrate in data set [3]: CO/N=C(\C(=O)N[C@@H]1C(=O)N2C(C(=O)[O-])=C(C[N+]3(C)CCCC3)CS[C@H]12)c1csc(N)n1
The data set is described as §1.

Substrate in data set [4]: O=C(Cc1cccs1)N[C@@H]1C(=O)N2C(C(=O)[O-])=C(C[n+]3ccccc3)CS[C@H]12
The description is as §1.

Substrate in data set [5]: CC(C)(O/N=C(\C(=O)N[C@@H]1C(=O)N2C(C(=O)[O-])=C(C[n+]3ccccc3)CS[C@H]12)c1csc(N)n1)C(=O)O
The description is as §1.

Substrate in data set [6]: CC1(C)S[C@@H]2[C@H](NC(=O)Cc3ccccc3)C(=O)N2[C@H]1C(=O)O
Nature of the data set: (§2) Activity of Serratia marcescens SME3 assessed as drug hydrolysis by spectrophotometry.

Substrate in data set [7]: Nc1nc(/C(=N/O)C(=O)N[C@@H]2C(=O)N3C(C(=O)O)=C(/C=C4\CCN([C@@H]5CCNC5)C4=O)CS[C@H]23)ns1
The description is as §2.

Substrate in data set [8]: CO/N=C(\C(=O)N[C@@H]1C(=O)N2C(C(=O)[O-])=C(C[N+]3(C)CCCC3)CS[C@H]12)c1csc(N)n1
The description is as §2.

Substrate in data set [9]: O=C(Cc1cccs1)N[C@@H]1C(=O)N2C(C(=O)[O-])=C(C[n+]3ccccc3)CS[C@H]12
The description is as §2.

Substrate in data set [10]: CC(C)(O/N=C(\C(=O)N[C@@H]1C(=O)N2C(C(=O)[O-])=C(C[n+]3ccccc3)CS[C@H]12)c1csc(N)n1)C(=O)O
The data set is described as §2.

Substrate in data set [11]: CC1(C)S[C@@H]2[C@H](NC(=O)Cc3ccccc3)C(=O)N2[C@H]1C(=O)O
Nature of the data set: (§3) Ratio of Kcat to Km of Pseudomonas aeruginosa IMP1 assessed as drug hydrolysis by spectrophotometry.

Substrate in data set [12]: Nc1nc(/C(=N/O)C(=O)N[C@@H]2C(=O)N3C(C(=O)O)=C(/C=C4\CCN([C@@H]5CCNC5)C4=O)CS[C@H]23)ns1
The description is as §3.

Substrate in data set [13]: CO/N=C(\C(=O)N[C@@H]1C(=O)N2C(C(=O)[O-])=C(C[N+]3(C)CCCC3)CS[C@H]12)c1csc(N)n1
The data set is described as §3.

Substrate in data set [14]: O=C(Cc1cccs1)N[C@@H]1C(=O)N2C(C(=O)[O-])=C(C[n+]3ccccc3)CS[C@H]12
The data set is described as §3.

Substrate in data set [15]: CC(C)(O/N=C(\C(=O)N[C@@H]1C(=O)N2C(C(=O)[O-])=C(C[n+]3ccccc3)CS[C@H]12)c1csc(N)n1)C(=O)O
The data set is described as §3.

Substrate in data set [16]: CC1(C)S[C@@H]2[C@H](NC(=O)Cc3ccccc3)C(=O)N2[C@H]1C(=O)O
As to conditions: Escherichia coli.

Substrate in data set [17]: Nc1nc(/C(=N/O)C(=O)N[C@@H]2C(=O)N3C(C(=O)O)=C(/C=C4\CCN([C@@H]5CCNC5)C4=O)CS[C@H]23)ns1
As to conditions: Escherichia coli.

Substrate in data set [18]: CO/N=C(\C(=O)N[C@@H]1C(=O)N2C(C(=O)[O-])=C(C[N+]3(C)CCCC3)CS[C@H]12)c1csc(N)n1
The settings on record: Escherichia coli.

Substrate in data set [19]: O=C(Cc1cccs1)N[C@@H]1C(=O)N2C(C(=O)[O-])=C(C[n+]3ccccc3)CS[C@H]12
As to conditions: Escherichia coli.

Substrate in data set [20]: CC(C)(O/N=C(\C(=O)N[C@@H]1C(=O)N2C(C(=O)[O-])=C(C[n+]3ccccc3)CS[C@H]12)c1csc(N)n1)C(=O)O
The settings on record: Escherichia coli.

Substrate in data set [21]: CC1(C)S[C@@H]2[C@H](NC(=O)Cc3ccccc3)C(=O)N2[C@H]1C(=O)O
As to conditions: Escherichia coli. This is another data set of the same source.

Substrate in data set [22]: Nc1nc(/C(=N/O)C(=O)N[C@@H]2C(=O)N3C(C(=O)O)=C(/C=C4\CCN([C@@H]5CCNC5)C4=O)CS[C@H]23)ns1
The settings on record: Escherichia coli. The source holds these as a separate data set.

Substrate in data set [23]: CO/N=C(\C(=O)N[C@@H]1C(=O)N2C(C(=O)[O-])=C(C[N+]3(C)CCCC3)CS[C@H]12)c1csc(N)n1
As to conditions: Escherichia coli. The source holds these as a separate data set.

Substrate in data set [24]: O=C(Cc1cccs1)N[C@@H]1C(=O)N2C(C(=O)[O-])=C(C[n+]3ccccc3)CS[C@H]12
As to conditions: Escherichia coli. The source holds these as a separate data set.

Substrate in data set [25]: CC(C)(O/N=C(\C(=O)N[C@@H]1C(=O)N2C(C(=O)[O-])=C(C[n+]3ccccc3)CS[C@H]12)c1csc(N)n1)C(=O)O
The settings on record: Escherichia coli. The source holds these as a separate data set.

B1: Carbapenem-hydrolyzing beta-lactamase SME-3 (Serratia marcescens), Q6PRG8 (protein)
chain: MSNKVNFKTASFLFSVCLALSAFNAHANKSDAAAKQIKKLEEDFDGRIGVFAIDTGSGNTFGYRSDERFPLCSSFKGFLAAAVLERVQQKKLDINQKVKYESRDLEYYSPITTKYKGSGMTLGDMASAALQYSDNGATNIIMERFLGGPEGMTKFMRSIGDNEFRLDRWELELNTAIPGDKRDTSTPKAVANSLNKLALGNVLNAKVKAIYQNWLKGNTTGDARIRASVPADWVVGDKTGSCGAYGTANDYAVIWPKNRAPLIVSIYTTRKSKDDKHSDKTIAEASRIAIQAID
A word on the kcat/Km: it is the turnover number divided by the Michaelis constant. One may read the Km as the concentration of substrate that gives half-maximal velocity. As a reminder, the kcat is the maximal rate divided by the concentration of active sites. In the case of B1, the kcat/Km in data set [1] turned out to be 4e+06 M⁻¹ s⁻¹; in data set [2], 22000 M⁻¹ s⁻¹; in data set [3] it was 5400 M⁻¹ s⁻¹; in [4] it was 3e+06 M⁻¹ s⁻¹; in data set [5], 940 M⁻¹ s⁻¹. The Km was determined as 2.2 µM in data set [6]; 270 µM in [7]; 280 µM in [8]; 400 µM in data set [9]; 170 µM in data set [10]. For the same protein, the kcat in [6] is 8.8 s⁻¹; in data set [7] it was 5.9 s⁻¹; in data set [8] it was 1.5 s⁻¹; in data set [9], 1200 s⁻¹; in [10], 0.16 s⁻¹.

B2: Metallo beta-lactamase (Pseudomonas aeruginosa), Q6TUJ4 (protein)
chain: YVHTSFEEVNGWGVVPKHGLVVLVNAEAYLIDTPFTAKDTEKLVTWFVERGYKIKGSISSHFHSDSTGGIEWLNSRSIPTYASELTNELLKKDGKVQATNSFSGVNYWLVKNKIEVFYPGPGHTPDNVVVWLP
Take B2: the kcat/Km in [11] was 560000 M⁻¹ s⁻¹; in data set [12] it was 740000 M⁻¹ s⁻¹; in data set [13], 150000 M⁻¹ s⁻¹; in data set [14] it was 75000 M⁻¹ s⁻¹; in data set [15], 90000 M⁻¹ s⁻¹.

B3: Class A carbapenemase KPC-2 (Escherichia coli), A8DS27 (protein)
chain: MSLYRRLVLLSCLSWPLAGFSATALTNLVAEPFAKLEQDFGGSIGVYAMDTGSGATVSYRAEERFPLCSSFKGFLAAAVLARSQQQAGLLDTPIRYGKNALVPWSPISEKYLTTGMTVAELSAAAVQYSDNAAANLLLKELGGPAGLTAFMRSIGDTTFRLDRWELELNSAIPGDARDTSSPRAVTESLQKLTLGSALAAPQRQQFVDWLKGNTTGNHRIRAAVPADWAVGDKTGTCGVYGTANDYAVVWPTGRAPIVLAVYTRAPNKDDKHSEAVIAAAARLALEGLGVNGQ
As to B3, the Km in data set [16] came out at 30 µM; in data set [17] it was 340 µM; in [18], 540 µM; in data set [19], 510 µM; in data set [20] it was 230 µM. The kcat in data set [16] turned out to be 60 s⁻¹; in data set [17], 110 s⁻¹; in [18], 12 s⁻¹; in [19] it was 390 s⁻¹; in data set [20] it was 0.38 s⁻¹. In addition, the kcat/Km amounted to 2e+06 M⁻¹ s⁻¹ in data set [21]; 320000 M⁻¹ s⁻¹ in data set [22]; 22000 M⁻¹ s⁻¹ in data set [23]; 770000 M⁻¹ s⁻¹ in [24]; 1700 M⁻¹ s⁻¹ in data set [25].
